B1: H/ACA ribonucleoprotein complex subunit 3 (Homo sapiens), Q9NPE3 (parent)
chain: MFLQYYLNEQGDRVYTLKKFDPMGQQTCSAHPARFSPDDKYSRHRITIKKRFKVLMTQQPRPVL
partner: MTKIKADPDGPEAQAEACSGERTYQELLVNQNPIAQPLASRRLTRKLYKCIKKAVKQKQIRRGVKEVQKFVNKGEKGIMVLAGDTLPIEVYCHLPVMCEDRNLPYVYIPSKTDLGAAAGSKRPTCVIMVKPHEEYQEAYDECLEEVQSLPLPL
B2: Carbonic anhydrase-related protein (Homo sapiens), P35219 (parent)
chain: MADLSFIEDTVAFPEKEEDEEEEEEGVEWGYEEGVEWGLVFPDANGEYQSPINLNSREARYDPSLLDVRLSPNYVVCRDCEVTNDGHTIQVILKSKSVLSGGPLPQGHEFELYEVRFHWGRENQRGSEHTVNFKAFPMELHLIHWNSTLFGSIDEAVGKPHGIAIIALFVQIGKEHVGLKAVTEILQDIQYKGKSKTIPCFNPNTLLPDPLLRDYWVYEGSLTIPPCSEGVTWILFRYPLTISQLQIEEFRRLRTHVKGAELVEGCDGILGDNFRPTQPLSDRVIRAAFQ
partner: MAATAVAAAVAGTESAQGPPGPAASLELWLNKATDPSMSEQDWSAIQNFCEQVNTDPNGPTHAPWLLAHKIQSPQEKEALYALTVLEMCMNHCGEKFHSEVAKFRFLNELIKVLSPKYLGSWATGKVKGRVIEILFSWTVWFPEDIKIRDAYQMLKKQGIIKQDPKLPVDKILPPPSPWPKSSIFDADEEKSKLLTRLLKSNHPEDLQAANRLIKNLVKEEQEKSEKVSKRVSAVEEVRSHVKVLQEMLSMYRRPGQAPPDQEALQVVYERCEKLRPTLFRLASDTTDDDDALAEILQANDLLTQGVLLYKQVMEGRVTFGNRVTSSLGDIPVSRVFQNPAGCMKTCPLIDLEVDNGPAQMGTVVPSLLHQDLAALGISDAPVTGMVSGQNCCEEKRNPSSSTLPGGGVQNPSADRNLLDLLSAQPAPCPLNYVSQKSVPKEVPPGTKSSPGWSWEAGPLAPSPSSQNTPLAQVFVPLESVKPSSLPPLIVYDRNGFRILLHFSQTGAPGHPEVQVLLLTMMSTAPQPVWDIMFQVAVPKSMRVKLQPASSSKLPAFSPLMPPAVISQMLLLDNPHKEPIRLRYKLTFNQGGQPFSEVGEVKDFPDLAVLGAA
B3: Basal cell adhesion molecule (Homo sapiens), P50895 (parent)
chain: MEPPDAPAQARGAPRLLLLAVLLAAHPDAQAEVRLSVPPLVEVMRGKSVILDCTPTGTHDHYMLEWFLTDRSGARPRLASAEMQGSELQVTMHDTRGRSPPYQLDSQGRLVLAEAQVGDERDYVCVVRAGAAGTAEATARLNVFAKPEATEVSPNKGTLSVMEDSAQEIATCNSRNGNPAPKITWYRNGQRLEVPVEMNPEGYMTSRTVREASGLLSLTSTLYLRLRKDDRDASFHCAAHYSLPEGRHGRLDSPTFHLTLHYPTEHVQFWVGSPSTPAGWVREGDTVQLLCRGDGSPSPEYTLFRLQDEQEEVLNVNLEGNLTLEGVTRGQSGTYGCRVEDYDAADDVQLSKTLELRVAYLDPLELSEGKVLSLPLNSSAVVNCSVHGLPTPALRWTKDSTPLGDGPMLSLSSITFDSNGTYVCEASLPTVPVLSRTQNFTLLVQGSPELKTAEIEPKADGSWREGDEVTLICSARGHPDPKLSWSQLGGSPAEPIPGRQGWVSSSLTLKVTSALSRDGISCEASNPHGNKRHVFHFGTVSPQTSQAGVAVMAVAVSVGLLLLVVAVFYCVRRKGGPCCRQRREKGAPPPGEPGLSHSGSEQPEQTGLLMGGASGGARGGSGGFGDEC
partner: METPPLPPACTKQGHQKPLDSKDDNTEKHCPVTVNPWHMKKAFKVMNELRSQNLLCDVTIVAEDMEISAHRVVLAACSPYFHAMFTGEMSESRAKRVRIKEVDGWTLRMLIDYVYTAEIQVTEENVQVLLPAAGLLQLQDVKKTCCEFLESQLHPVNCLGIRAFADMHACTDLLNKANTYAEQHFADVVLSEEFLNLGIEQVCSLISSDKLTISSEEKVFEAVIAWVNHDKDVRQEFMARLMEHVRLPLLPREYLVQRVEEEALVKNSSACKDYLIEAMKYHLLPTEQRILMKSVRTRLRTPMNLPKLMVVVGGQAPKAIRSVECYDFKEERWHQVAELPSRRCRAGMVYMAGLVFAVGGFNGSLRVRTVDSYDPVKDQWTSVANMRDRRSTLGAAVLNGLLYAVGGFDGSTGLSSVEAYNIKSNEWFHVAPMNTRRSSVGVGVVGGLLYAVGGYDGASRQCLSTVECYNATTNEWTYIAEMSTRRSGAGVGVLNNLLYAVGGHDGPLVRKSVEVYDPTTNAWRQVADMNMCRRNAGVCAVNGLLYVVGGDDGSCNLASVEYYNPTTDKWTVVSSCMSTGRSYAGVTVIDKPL
B4: EF-hand domain-containing protein 1 (Homo sapiens), Q5JVL4 (parent)
chain: MVSNPVHGLPFLPGTSFKDSTKTAFHRSQTLSYRNGYAIVRRPTVGIGGDRLQFNQLSQAELDELASKAPVLTYGQPKQAPPADFIPAHVAFDKKVLKFDAYFQEDVPMSTEEQYRIRQVNIYYYLEDDSMSVIEPVVENSGILQGKLIKRQRLAKNDRGDHYHWKDLNRGINITIYGKTFRVVDCDQFTQVFLESQGIELNPPEKMALDPYTELRKQPLRKYVTPSDFDQLKQFLTFDKQVLRFYAIWDDTDSMYGECRTYIIHYYLMDDTVEIREVHERNDGRDPFPLLMNRQRVPKVLVENAKNFPQCVLEISDQEVLEWYTAKDFIVGKSLTILGRTFFIYDCDPFTRRYYKEKFGITDLPRIDVSKREPPPVKQELPPYNGFGLVEDSAQNCFALIPKAPKKDVIKMLVNDNKVLRYLAVLESPIPEDKDRRFVFSYFLATDMISIFEPPVRNSGIIGGKYLGRTKVVKPYSTVDNPVYYGPSDFFIGAVIEVFGHRFIILDTDEYVLKYMESNAAQYSPEALASIQNHVRKREAPAPEAESKQTEKDPGVQELEALIDTIQKQLKDHSCKDNIREAFQIYDKEASGYVDRDMFFKICESLNVPVDDSLVKELIRMCSHGEGKINYYNFVRAFSN
partner: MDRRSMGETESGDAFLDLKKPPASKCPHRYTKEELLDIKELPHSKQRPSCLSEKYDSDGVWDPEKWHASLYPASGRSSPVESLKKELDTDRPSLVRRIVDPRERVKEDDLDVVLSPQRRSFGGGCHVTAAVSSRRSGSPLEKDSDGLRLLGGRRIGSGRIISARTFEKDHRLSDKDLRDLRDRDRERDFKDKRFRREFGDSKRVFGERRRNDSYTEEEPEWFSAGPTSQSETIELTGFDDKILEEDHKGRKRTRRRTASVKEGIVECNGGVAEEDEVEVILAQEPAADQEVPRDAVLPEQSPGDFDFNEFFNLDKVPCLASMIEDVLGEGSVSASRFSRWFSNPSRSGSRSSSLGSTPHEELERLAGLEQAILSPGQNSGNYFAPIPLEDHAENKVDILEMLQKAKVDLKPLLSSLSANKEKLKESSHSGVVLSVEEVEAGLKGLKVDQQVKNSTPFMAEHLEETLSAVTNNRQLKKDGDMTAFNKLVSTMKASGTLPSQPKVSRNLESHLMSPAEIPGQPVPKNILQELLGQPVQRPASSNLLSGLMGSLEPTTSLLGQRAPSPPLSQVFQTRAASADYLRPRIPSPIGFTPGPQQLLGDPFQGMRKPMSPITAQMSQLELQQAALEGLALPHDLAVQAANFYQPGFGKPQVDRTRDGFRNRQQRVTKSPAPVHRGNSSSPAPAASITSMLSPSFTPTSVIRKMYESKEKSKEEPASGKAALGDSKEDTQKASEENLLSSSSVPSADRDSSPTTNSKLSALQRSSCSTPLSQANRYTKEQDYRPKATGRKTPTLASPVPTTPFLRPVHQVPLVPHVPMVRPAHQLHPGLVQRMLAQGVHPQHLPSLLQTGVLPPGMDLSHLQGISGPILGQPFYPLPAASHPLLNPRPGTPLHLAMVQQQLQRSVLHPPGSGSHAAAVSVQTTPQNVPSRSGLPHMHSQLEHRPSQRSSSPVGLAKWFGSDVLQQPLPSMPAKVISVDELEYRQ

Variants of: B1
Settings: with nhp2_human NHP2, Q9NX24

effect of a mutation on the interaction	Variant
with no effect	R34W

Variants of: B2
Settings: with gga2_human GGA2, Q9UJY4

effect of a mutation on the interaction	Variant
disrupting interaction strength	S100P

Variants of: B3
Settings: with klhl2_human KLHL2, O95198

effect of a mutation on the interaction	Variant
with no effect	R77H
with no effect	R175Q
with no effect	T539A
with no effect	S447L

Variants of: B4
Settings: with 4et_human EIF4ENIF1, Q9NRA8

effect of a mutation on the interaction	Variant
with no effect	R159W
disrupting interaction strength	A394S
disrupting interaction strength	T508R
disrupting interaction strength	R221H
disrupting interaction strength	P77T

Source: IntAct's records for PubMed 25910212
